In patent publication US20220389077A1, “ALLOGENEIC CELL COMPOSITIONS AND METHODS OF USE” (Poseida Therapeutics, Inc., priority 2018, published 2022):

Columns and labels:
human CD58 = target: T1, human CD58 (Homo sapiens, UniProt P19256); assay: T cell degranulation (CD107a) against CD58-positive cell targets; assay type: cell-based; settings: 4-6 hours coculture; K562 or Rat2 cells with mRNA encoding human CD58
T1 construct: expressed in transfected cells; host or cells: K562 (electroporated) or Rat2 (lipofected) cells
T1 sequence (P19256 29-250): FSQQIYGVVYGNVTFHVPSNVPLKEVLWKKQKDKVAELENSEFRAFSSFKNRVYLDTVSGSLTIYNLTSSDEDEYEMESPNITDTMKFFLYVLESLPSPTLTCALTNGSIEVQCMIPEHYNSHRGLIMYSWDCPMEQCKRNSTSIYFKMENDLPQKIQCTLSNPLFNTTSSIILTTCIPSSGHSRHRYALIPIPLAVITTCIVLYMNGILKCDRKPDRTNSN
Method: FIG. 23B is a series of bar graphs showing CSR CD2z mutant degranulation data. The panel of CSR CD2z mutants was tested for the capability of mediating degranulation against CD58-positive cell targets. T cell degranulation is a surrogate of T cell killing that can be measured by FACS staining for intracellular CD107a expression following coculture with target cell lines expressing target antigen. Specifically, pan T cells from normal blood donors were stimulated with anti-CD3/anti-CD28 beads in standard T cell culture media, then rested. These cells were then electroporated (BTX ECM 830 electroporator @ 500V for 700 μs) with 9 μg of mRNA expressing CSR CD2z mutants and cultured overnight. The next day, the cells were cocultured for 4-6 hours in the presence of various target cell lines. Positive target cell lines included K562 cells or Rat2 cells that were electroporated or lipofected, respectively, with mRNA encoding human CD58, while negative controls were either Rat2 cells that were not electroporated or CSR CD2z mutant expressing T cells alone.
FIG. 23C is a summary of staining and degranulation data. Data from surface-expression and binding studies, as well as those from degranulation experiments for each CSR CD2z mutant is summarized in the table.
(§1) FIG. 23D is a series of flow cytometry plots showing the expression of CD48, CD58 or CD59 on K562 and Rat2 cells. To confirm possible ligands for the CSR WT CD2z molecule, a panel of known and suspected ligands including human CD48, CD58, and CD59 were tested. Degranulation of engineered T cells was evaluated against the cell lines K562 and Rat2 that were made to overexpress the target ligands and confirmed for expression by FACS staining. Red histograms are unstained cells and blue histograms are cells that were electroporated/lipofected with mRNA and then stained for expression of the respective marker by FACS.
FIG. 23E is a bar graph showing that CSR CD2z recognizes human CD58, but not CD48 or CD59. To confirm possible ligands for the CSR WT CD2z molecule, a panel of known and suspected ligands including human CD48, CD58, and CD59 were tested. Degranulation of engineered T cells was evaluated against the cell lines K562 and Rat2 that were made to overexpress the target ligands and confirmed for expression by FACS staining. Cells were electroporated/lipofected with mRNA and then stained for expression of the respective marker by FACS. As a control, a BCMA CAR was included as well as a K562 cell line overexpressing BCMA. In addition, T cells transfected with GFP were also included as a control. T cell degranulation is a surrogate of T cell killing that can be measured by FACS staining for intracellular CD107a expression following coculture with target cell lines expressing target antigen. Pan T cells from normal blood donors were stimulated with anti-CD3/anti-CD28 beads in standard T cell culture media, then rested. These T cells were then electroporated with mRNA expressing CSR WT CD2z, BCMA CAR, or GFP and cultured overnight. The next day, the cells were cocultured for 4-6 hours in the presence of the various target cell lines that were electroporate/lipofected with mRNA encoding human CD48, CD58 or CD59, while negative controls were either K562 or Rat2 cells that were not electroporated/lipofected, or each of the electroporated T cells alone.

human CD48 = target: T2, human CD48 (Homo sapiens, UniProt P09326); assay: T cell degranulation (CD107a) against cells overexpressing CD48; assay type: cell-based; settings: 4-6 hours coculture; K562 or Rat2 cells
T2 construct: expressed in transfected cells; host or cells: K562 or Rat2 cells, electroporated/lipofected with mRNA
T2 sequence (P09326 27-220): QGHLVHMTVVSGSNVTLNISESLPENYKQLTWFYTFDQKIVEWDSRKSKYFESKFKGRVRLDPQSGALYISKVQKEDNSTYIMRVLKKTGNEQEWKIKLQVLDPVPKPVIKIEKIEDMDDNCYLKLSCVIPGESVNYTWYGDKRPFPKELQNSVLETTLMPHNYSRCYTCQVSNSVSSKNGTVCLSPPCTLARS
Method: as §1
FIG. 23E is a bar graph showing that CSR CD2z recognizes human CD58, but not CD48 or CD59. To confirm possible ligands for the CSR WT CD2z molecule, a panel of known and suspected ligands including human CD48, CD58, and CD59 were tested. Degranulation of engineered T cells was evaluated against the cell lines K562 and Rat2 that were made to overexpress the target ligands and confirmed for expression by FACS staining. Cells were electroporated/lipofected with mRNA and then stained for expression of the respective marker by FACS. […] T cell degranulation is a surrogate of T cell killing that can be measured by FACS staining for intracellular CD107a expression following coculture with target cell lines expressing target antigen. […]

TCRb and b2M = assay: Gene editing (knockout of TCR and MHCI) of Allo CAR-T cells with CSR; assay type: cell-based, human; settings: up to 14-day culture; CSR stable or transient
From the text: Pan T cells isolated from healthy donor blood were genetically modified using the piggyBac® DNA modification system in combination with the Cas-CLOVER™ gene-editing system (CC) to produce allogeneic (Allo) CAR-T cells. […] Following EP, all cells were subsequently stimulated with a cocktail of agonist mAbs anti-CD2, anti-CD3 and anti-CD28, and were later selected for genetic modification over the course of up to a 14-day culture period using the selection gene. At the end of the initial culture period, all T cells expressed the CAR, indicating successful selection for genetically-modified cells (data not shown). All samples were performed in duplicate, and data is shown in bar graph where error bars represent standard deviation.

degranulation (CD107a) against CD48 (human CD48): not against human CD48 or CD59
B1: CD2z CSR: chimeric stimulatory receptor: CD2 signal peptide, extracellular, transmembrane and cytoplasmic domains with CD3z intracellular domain (SEQ ID NO: 17062) (protein)
chain: MSFPCKFVASFLLIFNVSSKGAVSKEITNALETWGALGQDINLDIPSFQMSDDIDDIKWEKTSDKKKIAQFRKEKETFKEKDTYKLFKNGTLKIKHLKTDDQDIYKVSIYDTKGKNVLEKIFDLKIQERVSKPKISWTCINTTLTCEVMNGTDPELNLYQDGKHLKLSQRVITHKWTTSLSAKFKCTAGNKVSKESSVEPVSCPEKGLDIYLIIGICGGGSLLMVFVALLVFYITKRKKQRSRRNDEELETRAHRVATEERGRKPHQIPASTPQNPATSQHPPPPPGHRSQAPSHRPPPPGHRVQHQPQKRPPAPSGTQVHQQKGPPLPRPRVQPKPPHGAAENSLSPSSNRVKFSRSADAPAYKQGQNQLYNELNLGRREEYDVLDKRRGRDPEMGGKPRRKNPQEGLYNELQKDKMAEAYSEIGMKGERRRGKGHDGLYQGLSTATKDTYDALHMQALPPR
degranulation (CD107a) against CD58 (human CD58): capable of degranulating at levels above background | degree of gene editing compared to Allo CAR-T cells produced without a CSR (TCRb and b2M): a similar or greater degree of gene editing
